Laboratory results taken from US6677433B2 (The Regents of the University of California, priority 2001, dated 2004).

Target: T1, Fructose Bisphosphatase (Spinacia oleracea, UniProt P22418)
T1 construct: fructose-1,6-bisphosphatase (FBPase) were purified from leaves of corn (Jacquot, J.-P. et al. (1981), Plant Physiol. 68:300-304) and spinach; from tissue; host or cells: spinach leaves
T1 sequence (P22418 58-415): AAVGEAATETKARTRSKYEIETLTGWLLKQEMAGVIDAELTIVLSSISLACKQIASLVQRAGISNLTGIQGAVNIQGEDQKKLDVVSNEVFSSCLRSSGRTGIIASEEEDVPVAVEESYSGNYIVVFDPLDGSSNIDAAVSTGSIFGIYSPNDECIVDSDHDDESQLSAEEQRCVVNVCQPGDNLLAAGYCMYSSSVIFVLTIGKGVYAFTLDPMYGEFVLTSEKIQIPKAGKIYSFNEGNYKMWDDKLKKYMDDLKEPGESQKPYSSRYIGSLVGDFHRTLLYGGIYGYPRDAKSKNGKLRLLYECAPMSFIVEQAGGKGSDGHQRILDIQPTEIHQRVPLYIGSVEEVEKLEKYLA
Assay: Activation of chloroplast fructose bisphosphatase by thioredoxin-reduced proteins
Type: biochemical, spinach
Details: standard DTT assay, 1 μg E. coli thioredoxin, 20 μg protein; corrected for thioredoxin alone
Protocol: The NADP-MDH, FBPase, NTR and Thioredoxin h assay methods were according to Florencio, F. J. et al. (1988), Arch. Biochem. Biophys. 266:496-507 with slight modifications as indicated. For enzyme activation assays, the preincubation time was 20 min unless specified otherwise.
The capability to replace a specific thioredoxin in the activation of chloroplast enzymes is one test for the ability of thiol groups of a given protein to undergo reversible redox change. […] A case in point is purothionin which, when reduced by thioredoxin h activates chloroplast FBPase (Wada, K. et al. (1981), FEBS Lett. 124:237-240, and Johnson, T. C. et al. (1987), Plant Physiol. 85:446-451). The FBPase, whose physiological activator is thioredoxin f, is unaffected by thioredoxin h. In this Example, the ability of cystine-rich proteins to activate FBPase as well as NADP-MDH was tested as set forth above. […]
The Wada et al., 1981 protocol was used for assaying NADP-malate dehydrogenase and fructose 1,6 bisphosphatase in the presence of thioredoxin and 2S protein. […] The 2S protein was monitored during purification by mBBr/SDS-polyacrylamide gel electrophoresis following its reduction by dithiothreitol and E. coli thioredoxin (Crawford et al., 1989; Kobrehel et al., 1991).

B1: Soybean Kunitz: Kunitz soybean trypsin inhibitor (protein, UniProt P01070 25-205, looked up)
Trypsin inhibitor A: DFVLDNEGNPLENGGTYYILSDITAFGGIRAAPTGNERCPLTVVQSRNELDKGIGTIISSPYRIRFIAEGHPLSLKFDSFAVIMLCVGIPTEWSVVEDLPEGPAVKIGENKDAMDGWFRLERVSDDEFNNYKLVFCPQQAEDDKCGDIGISIDHDDGTRRLVVSKNKPLVVQFQKLDKESL
  ACTIVITY, FBPase: 0 nkat/mg
